Measured values reported in publication doi:10.1101/710897.

Molecular target: UapA K73A/R133A/R421A/T401P, purified, detergent-solubilized (Aspergillus nidulans) (UniProt Q07307)
Assay: native MS

UapA K73A/R133A/R421A/T401P, purified, detergent-solubilized (from UniProt Q07307 1-574) (natural protein)
stoichiometry N: 2
